Values belong to the binder of their own block, whether it stands above or below them.
How the values were obtained:
[1] = molecular target: hCD73-his (full length extracellular domain of human CD73, residues 26-546, C-terminal polyhistidine tag) (human) (UniProt P21589); test: SEC-MALS, hCD73-his:Fab 1:2 (4:8 uM); peak at ~12.6 min, 0.9 % of UV
[2] = molecular target: hCD73-his (full length extracellular domain of human CD73, residues 26-546, C-terminal polyhistidine tag) (human) (UniProt P21589); test: SEC-MALS, hCD73-his:Fab 1:2 (4:8 uM); peak at ~16.8 min, 0.8 % of UV
[3] = molecular target: hCD73-his (full length extracellular domain of human CD73, residues 26-546, C-terminal polyhistidine tag) (human) (UniProt P21589); test: SEC-MALS, hCD73-his:Fab 1:2 (4:8 uM); peak at ~20.1 min, 7.7 % of UV
[4] = molecular target: hCD73-his (full length extracellular domain of human CD73, residues 26-546, C-terminal polyhistidine tag) (human) (UniProt P21589); test: SEC-MALS, hCD73-his:Fab 1:2 (4:8 uM); peak at ~14.7 min, 90.7 % of UV
[5] = molecular target: N-hCD73-his (N-terminal domain of human CD73, residues 26-336) (human) (UniProt P21589); test: SEC-MALS, N-hCD73-his:Fab 1:1 (8:8 uM); peak at ~20.0 min, 4.7 % of UV
Sequence of N-hCD73-his (N-terminal domain of human CD73, residues 26-336) (human) (P21589 26-336 limits assumed): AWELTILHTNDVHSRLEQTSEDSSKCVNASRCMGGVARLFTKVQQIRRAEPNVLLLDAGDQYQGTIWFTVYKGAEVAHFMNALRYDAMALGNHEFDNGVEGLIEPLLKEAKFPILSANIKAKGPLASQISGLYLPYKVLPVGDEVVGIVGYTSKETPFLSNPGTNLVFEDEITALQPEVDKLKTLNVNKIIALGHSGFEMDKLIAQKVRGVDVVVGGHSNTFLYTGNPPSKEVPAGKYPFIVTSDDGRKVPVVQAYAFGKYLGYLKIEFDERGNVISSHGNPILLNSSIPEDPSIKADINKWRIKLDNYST

[6] = molecular target: N-hCD73-his (N-terminal domain of human CD73, residues 26-336) (human) (UniProt P21589); test: SEC-MALS, N-hCD73-his:Fab 1:1 (8:8 uM); peak at ~17.4 min, 95.3 % of UV
[7] = molecular target: hCD73-his (full length extracellular domain of human CD73, residues 26-546, C-terminal polyhistidine tag) (human) (UniProt P21589); test: DLS, hCD73-his:Fab 1:2 (4:8 uM); Rh SD 0.1, %Pd 15.1 (SD 4.3), %Mass 100.0 (SD 0.0)
[8] = molecular target: N-hCD73-his (N-terminal domain of human CD73, residues 26-336) (human) (UniProt P21589); test: DLS, N-hCD73-his:Fab 1:1 (8:8 uM); Rh SD 0.1, %Pd 12.6 (SD 4.7), %Mass 100.0 (SD 0.0)
[9] = molecular target: hCD73-his (full length extracellular domain of human CD73, residues 26-546, C-terminal polyhistidine tag) (human) (UniProt P21589); test: SEC-MALS, hCD73:mAb 1:1 (2.5:[…]); peak at ~17.1 min, […] of UV
[10] = molecular target: hCD73-his (full length extracellular domain of human CD73, residues 26-546, C-terminal polyhistidine tag) (human) (UniProt P21589); test: SEC-MALS, hCD73:mAb 1:1 (2.5:[…]); peak at ~13.4 min, 1.9 % of UV
[11] = molecular target: hCD73-his (full length extracellular domain of human CD73, residues 26-546, C-terminal polyhistidine tag) (human) (UniProt P21589); test: SEC-MALS, hCD73:mAb 1:4 (2.5:10 uM); peak at ~11.7 min, […] of UV
[12] = molecular target: hCD73-his (full length extracellular domain of human CD73, residues 26-546, C-terminal polyhistidine tag) (human) (UniProt P21589); test: SEC-MALS, hCD73:mAb 1:1 (2.5:[…]); peak at ~11.5 min, 95.3 % of UV
[13] = molecular target: hCD73-his (full length extracellular domain of human CD73, residues 26-546, C-terminal polyhistidine tag) (human) (UniProt P21589); test: SEC-MALS, hCD73:mAb 1:2 (2.5:5 uM); peak at ~15.3 min, 0.6 % of UV
[14] = molecular target: hCD73-his (full length extracellular domain of human CD73, residues 26-546, C-terminal polyhistidine tag) (human) (UniProt P21589); test: SEC-MALS, hCD73:mAb 1:2 (2.5:5 uM); peak at ~11.7 min, 52.5 % of UV
[15] = molecular target: hCD73-his (full length extracellular domain of human CD73, residues 26-546, C-terminal polyhistidine tag) (human) (UniProt P21589); test: SEC-MALS, hCD73:mAb 1:2 (2.5:5 uM); peak at ~13.4 min, 17.7 % of UV
[16] = molecular target: hCD73-his (full length extracellular domain of human CD73, residues 26-546, C-terminal polyhistidine tag) (human) (UniProt P21589); test: SEC-MALS, hCD73:mAb 1:2 (2.5:5 uM); peak at ~17.1 min, 29.3 % of UV
[17] = molecular target: hCD73-his (full length extracellular domain of human CD73, residues 26-546, C-terminal polyhistidine tag) (human) (UniProt P21589); test: SEC-MALS, hCD73:mAb 1:4 (2.5:10 uM); peak at ~15.3 min, 1.2 % of UV
[18] = molecular target: hCD73-his (full length extracellular domain of human CD73, residues 26-546, C-terminal polyhistidine tag) (human) (UniProt P21589); test: SEC-MALS, hCD73:mAb 1:4 (2.5:10 uM); peak at ~13.4 min, 16.2 % of UV
[19] = molecular target: hCD73-his (full length extracellular domain of human CD73, residues 26-546, C-terminal polyhistidine tag) (human) (UniProt P21589); test: SEC-MALS, hCD73:mAb 1:4 (2.5:10 uM); peak at ~17.1 min, 58.6 % of UV
[20] = molecular target: hCD73-his (full length extracellular domain of human CD73, residues 26-546, C-terminal polyhistidine tag) (human) (UniProt P21589); test: SEC-MALS, hCD73:mAb 1:0.5 (2.5:1.25 uM); peak at ~11.7 min, 71.9 % of UV
[21] = molecular target: hCD73-his (full length extracellular domain of human CD73, residues 26-546, C-terminal polyhistidine tag) (human) (UniProt P21589); test: SEC-MALS, hCD73:mAb 1:0.5 (2.5:1.25 uM); peak at ~13.4 min, 15.8 % of UV
[22] = molecular target: hCD73-his (full length extracellular domain of human CD73, residues 26-546, C-terminal polyhistidine tag) (human) (UniProt P21589); test: SEC-MALS, hCD73:mAb 1:0.5 (2.5:1.25 uM); peak at ~17.1 min, 13.4 % of UV
[23] = molecular target: N-hCD73-his (N-terminal domain of human CD73, residues 26-336) (human) (UniProt P21589); test: SEC-MALS, N-hCD73:mAb 1:1 as printed (5:[…]); peak at ~15.9 min, […] of UV
[24] = molecular target: N-hCD73-his (N-terminal domain of human CD73, residues 26-336) (human) (UniProt P21589); test: SEC-MALS, N-hCD73:mAb 1:1 as printed (5:[…]); peak at ~17.0 min, […] of UV
[25] = molecular target: hCD73-his (full length extracellular domain of human CD73, residues 26-546, C-terminal polyhistidine tag) (human) (UniProt P21589); test: SEC-MALS, hCD73:mAb 1:0.25 (2.5:0.625 uM); peak at ~11.8 min, 42.0 % of UV
[26] = molecular target: hCD73-his (full length extracellular domain of human CD73, residues 26-546, C-terminal polyhistidine tag) (human) (UniProt P21589); test: SEC-MALS, hCD73:mAb 1:0.25 (2.5:0.625 uM); peak at ~13.4 min, 21.6 % of UV
[27] = molecular target: hCD73-his (full length extracellular domain of human CD73, residues 26-546, C-terminal polyhistidine tag) (human) (UniProt P21589); test: SEC-MALS, hCD73:mAb 1:0.25 (2.5:0.625 uM); peak at ~17.1 min, 36.4 % of UV
[28] = molecular target: N-hCD73-his (N-terminal domain of human CD73, residues 26-336) (human) (UniProt P21589); test: SEC-MALS, N-hCD73:mAb 1:1 as printed (5:[…]); peak at ~13.9 min, 0.7 % of UV
[29] = molecular target: N-hCD73-his (N-terminal domain of human CD73, residues 26-336) (human) (UniProt P21589); test: SEC-MALS, N-hCD73:mAb 1:1 as printed (5:[…]); peak at ~14.7 min, 88.3 % of UV
[30] = molecular target: hCD73-his (full length extracellular domain of human CD73, residues 26-546, C-terminal polyhistidine tag) (human) (UniProt P21589); test: DLS, hCD73:mAb 1:1 (2.5:[…]); Rh SD 1.0, %Pd 25.1 (SD 2.1), %Mass 22.3 (SD 4.9)
[31] = molecular target: hCD73-his (full length extracellular domain of human CD73, residues 26-546, C-terminal polyhistidine tag) (human) (UniProt P21589); test: DLS, hCD73:mAb 1:2 (2.5:5 uM); Rh SD 0.1, %Pd 31.3 (SD 5.5), %Mass 68.7 (SD 25.8)
[32] = molecular target: hCD73-his (full length extracellular domain of human CD73, residues 26-546, C-terminal polyhistidine tag) (human) (UniProt P21589); test: DLS, hCD73:mAb 1:4 (2.5:10 uM); Rh SD 0.9, %Pd 42.9 (SD 3.5), %Mass 90.2 (SD 17.5)
[33] = molecular target: hCD73-his (full length extracellular domain of human CD73, residues 26-546, C-terminal polyhistidine tag) (human) (UniProt P21589); test: DLS, hCD73:mAb 1:0.5 (2.5:1.25 uM); Rh SD 1.0, %Pd 31.7 (SD 8.8), %Mass 62.6 (SD 25.8)
[34] = molecular target: hCD73-his (full length extracellular domain of human CD73, residues 26-546, C-terminal polyhistidine tag) (human) (UniProt P21589); test: DLS, hCD73:mAb 1:0.25 (2.5:0.625 uM); Rh SD 1.7, %Pd 46.5 (SD 5.9), %Mass 99.9 (SD 0.1)
[35] = molecular target: N-hCD73-his (N-terminal domain of human CD73, residues 26-336) (human) (UniProt P21589); test: DLS, N-hCD73:mAb 1:1 as printed (5:[…]); Rh SD 0.3, %Pd 13.9 (SD 7.0), %Mass 100.0 (SD 0.0)

Sequence of hCD73-his (full length extracellular domain of human CD73, residues 26-546, C-terminal polyhistidine tag) (human) (P21589 26-546 limits assumed): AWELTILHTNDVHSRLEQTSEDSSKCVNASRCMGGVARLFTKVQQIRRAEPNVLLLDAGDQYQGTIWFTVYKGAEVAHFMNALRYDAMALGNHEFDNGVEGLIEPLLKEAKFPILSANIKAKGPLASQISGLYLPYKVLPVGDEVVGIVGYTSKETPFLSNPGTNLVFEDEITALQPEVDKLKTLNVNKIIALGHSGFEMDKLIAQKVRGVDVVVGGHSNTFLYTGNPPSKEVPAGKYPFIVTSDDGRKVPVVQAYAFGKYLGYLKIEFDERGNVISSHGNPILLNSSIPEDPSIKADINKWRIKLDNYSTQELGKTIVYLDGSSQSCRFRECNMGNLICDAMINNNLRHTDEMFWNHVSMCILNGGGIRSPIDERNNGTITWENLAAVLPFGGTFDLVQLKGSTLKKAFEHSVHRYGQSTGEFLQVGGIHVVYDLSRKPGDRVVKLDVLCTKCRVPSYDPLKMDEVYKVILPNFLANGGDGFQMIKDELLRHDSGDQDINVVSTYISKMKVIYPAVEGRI

MW (kDa) Peak 1 [1]: 300 kDa
MW (kDa) Peak 3 [2]: 85 kDa
MW (kDa) Peak 4 [3]: 40 kDa
MW (kDa) Peak 2 [4]: 310 kDa
MW (kDa) Peak 2 [5]: 44 kDa
MW (kDa) Peak 1 [6]: 84 kDa
Rh (DLS) [7]: 6.4 nm
Rh (DLS) [8]: 4.2 nm
B1: 11F11-Fab (Fab, V domains shown, part only)
VH: QVQLVESGGGVVQPGRSLRLSCATSGFTFSNYGMHWVRQAPGKGLEWVAVILYDGSNKYYPDSVKGRFTISRDNSKNTLYLQMNSLRAEDTAVYYCARGGSSWYPDSFDIWGQGTMVTVSS
VL: DIQMTQSPSSLSASVGDRVTITCRASQGISSWLAWYQQKPEKAPKSLIYAASSLQSGVPSRFSGSGSGTDFTLTISSLQPEDFATYYCQQYNSYPLTFGGGTKVEIKR
modifications: CH1 of Fab heavy chain not stated

MW (kDa) Peak 3 [9]: 530 kDa
MW (kDa) Peak 2 [10]: 1000 kDa
MW (kDa) Peak 1 [11]: 1300 kDa
MW (kDa) Peak 1 [12]: 3300 kDa
MW (kDa) Peak 3 [13]: 220 kDa
MW (kDa) Peak 1 [14]: 1700 kDa
MW (kDa) Peak 2 [15]: 500 kDa
MW (kDa) Peak 4 [16]: 140 kDa
MW (kDa) Peak 3 [17]: 200 kDa
MW (kDa) Peak 2 [18]: 500 kDa
MW (kDa) Peak 4 [19]: 140 kDa
MW (kDa) Peak 1 [20]: 1900 kDa
MW (kDa) Peak 2 [21]: 540 kDa
MW (kDa) Peak 3 [22]: 130 kDa
MW (kDa) Peak 3 [23]: 180 kDa
MW (kDa) Peak 4 [24]: 150 kDa
MW (kDa) Peak 1 [25]: 1200 kDa
MW (kDa) Peak 2 [26]: 520 kDa
MW (kDa) Peak 3 [27]: 120 kDa
MW (kDa) Peak 1 [28]: 390 kDa
MW (kDa) Peak 2 [29]: 210 kDa
Rh (DLS) [30]: 29.9 nm
Rh (DLS) [31]: 14.4 nm
Rh (DLS) [32]: 11.4 nm
Rh (DLS) [33]: 17.5 nm
Rh (DLS) [34]: 13.2 nm
Rh (DLS) [35]: 6.7 nm
B2: CD73.4-hybrid (antibody, from a related filing, V domains shown, part only)
VH: QVQLVESGGGVVQPGRSLRLSCAASGFTFSNYGMHWVRQAPGKGLEWVAVILYDGSNKYYPDSVKGRFTISRDNSKNTLYLQMNSLRAEDTAVYYCARGGSSWYPDSFDIWGQGTMVTVSS
VL: DIQMTQSPSSLSASVGDRVTITCRASQGISSWLAWYQQKPEKAPKSLIYAASSLQSGVPSRFSGSGSGTDFTLTISSLQPEDFATYYCQQYNSYPLTFGGGTKVEIKR

Reference: patent US20200268901A1
